This is an account of results in doi:10.1101/2020.01.12.903617, “The peptide sensor motif stabilizes the outward-facing conformation of TmrAB” (bioRxiv, 2020).

Numbering of substitutions follows the chain as printed. No end group written: not given here. fluorescein = fluorescein label attached to the Cys side chain

The target in experiment [1] is T1, WT TmrAB, heterodimeric peptide exporter from Thermus thermophilus (Thermus thermophilus, UniProt Q72J05 1-600; Q72J04 1-578).
T1 construct: TmrA, Thermus thermophilus, the chain of TmrAB with the canonical Walker B motif; TmrB, Thermus thermophilus, the chain of TmrAB with the non-canonical Walker B motif; TmrAB template in pet22b; also called wild-type TmrAB
T1 sequence 1: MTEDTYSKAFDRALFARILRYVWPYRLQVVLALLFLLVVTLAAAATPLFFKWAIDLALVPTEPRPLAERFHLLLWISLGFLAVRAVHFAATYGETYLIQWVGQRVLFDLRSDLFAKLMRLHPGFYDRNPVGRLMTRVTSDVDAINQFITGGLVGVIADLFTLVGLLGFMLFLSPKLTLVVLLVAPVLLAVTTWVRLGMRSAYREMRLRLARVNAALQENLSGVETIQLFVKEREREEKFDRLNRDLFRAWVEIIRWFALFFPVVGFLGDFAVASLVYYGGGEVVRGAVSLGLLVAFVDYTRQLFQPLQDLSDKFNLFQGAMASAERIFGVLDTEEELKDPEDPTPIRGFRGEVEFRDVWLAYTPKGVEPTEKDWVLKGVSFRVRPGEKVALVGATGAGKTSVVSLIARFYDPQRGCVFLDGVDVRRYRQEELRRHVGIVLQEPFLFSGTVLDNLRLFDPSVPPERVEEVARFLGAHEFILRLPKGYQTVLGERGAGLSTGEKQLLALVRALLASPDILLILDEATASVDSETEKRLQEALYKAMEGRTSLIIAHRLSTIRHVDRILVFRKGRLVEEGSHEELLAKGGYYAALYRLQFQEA
T1 sequence 2: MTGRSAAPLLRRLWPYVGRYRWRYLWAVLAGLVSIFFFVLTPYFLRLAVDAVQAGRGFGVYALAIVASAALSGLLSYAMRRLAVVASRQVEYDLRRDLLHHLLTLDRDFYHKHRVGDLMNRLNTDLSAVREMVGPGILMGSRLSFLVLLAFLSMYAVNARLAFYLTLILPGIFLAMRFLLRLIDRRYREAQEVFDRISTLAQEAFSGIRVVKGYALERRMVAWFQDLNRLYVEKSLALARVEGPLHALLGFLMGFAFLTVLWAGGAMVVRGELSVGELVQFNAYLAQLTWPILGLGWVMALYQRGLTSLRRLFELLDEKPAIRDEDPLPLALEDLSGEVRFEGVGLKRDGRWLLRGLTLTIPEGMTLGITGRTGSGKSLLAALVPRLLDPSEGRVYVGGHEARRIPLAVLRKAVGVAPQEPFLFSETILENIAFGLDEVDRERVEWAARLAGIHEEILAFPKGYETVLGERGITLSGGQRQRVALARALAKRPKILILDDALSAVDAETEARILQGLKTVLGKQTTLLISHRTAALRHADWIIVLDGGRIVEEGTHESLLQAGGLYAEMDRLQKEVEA
Kind of experiment: fluorescence polarisation; 1.7 uM TmrAB with 50 nM RRY(C^Fluorescein)KSTEL in SEC buffer (20 mM HEPES, 150 mM NaCl, pH 7, 0.05% ß-DDM), 15 minutes on ice, in the absence or presence of 5 mM ATP and 10 mM MgCl2; read at 25°C (the results say 4°C); signal normalized to WT without ATP. As to conditions: both partners purified. In general terms: In fluorescence polarisation assays a small probe gives low polarisation when free and higher when bound to something large.

Experiment [2] addresses T2, TmrAB R121A^TmrB (Thermus thermophilus, UniProt Q72J05 1-600; Q72J04 1-578, R121A).
T2 construct: TmrA, Thermus thermophilus, the chain of TmrAB with the canonical Walker B motif; TmrB, Thermus thermophilus, the chain of TmrAB with the non-canonical Walker B motif
T2 sequence 1: T1 sequence 1
T2 sequence 2: T1 sequence 2 with R121A
Described as above. As to conditions: both partners purified.

B1: fluorescent transport substrate peptide RRY(C^Fluorescein)KSTEL (peptide)
peptide: RRYC(fluorescein)KSTEL
notes: fluorescein-labelled transport substrate peptide of TmrAB; also called fluorescently-labeled peptide substrate; peptide substrate; source: bought: Genscript
As for B1, the binding result in experiment [1] and in experiment [2] was “binds” in each case.
